Test [1] deals with T1, GST-SdhA-CBM2 (1029-1260aa) (Legionella pneumophila, UniProt Q6RCQ3 1029-1260). Nature of the test: ELISA. On the technique in general: ELISA stands for enzyme-linked immunosorbent assay.
For test [2], the target named is T1, GST-SdhA-CBM2 (1029-1260aa). The experiment in a line: pull-down.

B1: His-tagged ASH/RhoGAP domain of OCRL (536aa-901aa) (domain or fragment)
chain: not shown
With B1, the binding result in test [1] is listed as “binds”.

B2: His-tagged ASH domain of OCRL (536aa-678aa) (domain or fragment)
chain: not shown
Turning to B2, the binding result in test [1] is reported as “binds”.

B3: GFP-tagged, full-length OCRL (natural protein)
chain: not shown
As to B3, the “fold pull-down above the GST control” value in test [2] was ~47 fold.
